We go through three molecules from patent KR20230087219A (dated 2023).

The target in assay [1] is T1, MERS-CoV nucleocapsid protein (Sino Biological Cat. No. 40068V08B) (MERS-CoV, UniProt K9N4V7 1-411).
T1 construct: also called MERS-CoV NP; MERS NP
In words: indirect LFIA, NP fixed on nitrocellulose, hybridoma culture medium.

Assay [2] concerns the target T2, SARS-CoV nucleocapsid protein (Sino Biological Cat. No. 40143-V08B) (SARS-CoV, UniProt P59595 1-422).
T2 construct: also called SARS-CoV NP
Described as above.

B1: 79C12 (antibody, V domains shown)
VH: EVKLEESGGGLVQPGGSMKLSCVASGFTFSDYWMNWVRQSPEKGLEWVAEIRLKSNNYATHYAESVKGRFTISRDDSKSSVYLQMNNLRAEDTGIYYCTRAAMDYWGQGTSVTVSS
VL: not shown
notes: also called monoclonal antibody 79C12
With B1, the binding result in assay [1] and in assay [2] was “no binding” throughout.

B2: 54G6 (antibody, V domains shown)
VH: EVQGVESGGGLVQPGGSMKLSCAASGFTFSDYWMNWVRQSPEKGLEWVGEIRLKSNNYATHYAESVKGRFTISRDDSKSSIHLQMNNLRAEDTGIYYCTRYAMDYWGQGTTVTVSS
VL: GIVMTQSPSSLAVSPGEKVTMSCKSSQSLLNSRTRKNHLAWYQQKPGQSPKLLIYWASTKDSGVPDRFTGSGSGTDFTLTISSVQAEDLAVYYCKQSYNLFTFGSGTKLEIK
notes: also called monoclonal antibody 54G6
For B2, the binding result in assay [1] and in assay [2] was “no binding” each time.

B3: 54G10 (antibody, V domains shown)
VH: EVTLKVCGPGILQPSQTLSLTCSFSGFSLSTSGMGVGWIRQPSGKGLEWLAHIWWDDVKRYNPALKSRLTISKDTSSSQVFLKIASVDTADTATYYCARYYRYDVRWGQGTLVTVSA
VL: DIVMTQTPKFLLVSAGDRVTITCKASQSVSNDVAWYQQKPGQSPTLLIYSASNRYTGVPDRFTGSGYGTDFTFTISTVQAEDLAVYFCQQDYSSPLTFGAGTKLELK
notes: also called monoclonal antibody 54G10
As for B3, the binding result in assay [1] and in assay [2] was “no binding” throughout.
